Targets include [F13A]myrArf1 (human) (UniProt P84077); [L8K]myrArf1 (human) (UniProt P84077); [L8A]myrArf1 (human) (UniProt P84077).
For experiment [1], the target named is wild-type myristoylated Arf1 (WT myrArf1) (human) (UniProt P84077).
Experiment [2] has as its target [L8A/F13A]myrArf1 (human) (UniProt P84077).

Turning to “tandem PH domains, Arf GAP, and ankyrin repeats of ARAP1 (PPZA construct), His-tagged (domain or fragment)”, the results for the C50 (nM) of the GAP assay: ARAP1 PPZA needed for 50% of maximum hydrolysis of [alpha-32P]GTP bound to myrArf1, LUVs with PIP3, 30°C, 3 min in experiment [F13A]myrArf1 (human) and in experiment [1] were 210 nM and 0.14 nM, respectively.

In the case of “PH, Arf GAP, and ankyrin repeats (PZA construct) of ASAP1, His-tagged (domain or fragment)”, the C50 (nM) of the GAP assay: ASAP1 PZA needed for 50% of maximum hydrolysis of [alpha-32P]GTP bound to myrArf1, LUVs with PIP2, 30°C, 3 min in experiment [F13A]myrArf1 (human) stood at 2100 nM; in experiment [1] it was 0.79 nM; in experiment [L8K]myrArf1 (human), 0.84 nM; in experiment [L8A]myrArf1 (human), 0.84 nM; in experiment [2], 0.7 nM.

For the substance “full-length AGAP1, His-tagged (from UniProt Q9UPQ3 1-857) (enzyme)”, the C50 (nM) of the GAP assay: full-length AGAP1 needed for 50% of maximum hydrolysis of [alpha-32P]GTP bound to myrArf1, LUVs with PIP2, 30°C, 3 min in experiment [F13A]myrArf1 (human) worked out at 340 nM; in experiment [1], 1.6 nM.

The record behind these values is article PMC10994351.
